molecular target: T1, human gastric inhibitory peptide receptor (hGIPR) (Homo sapiens, UniProt P48546); experiment: cAMP pharmacological functional assay in presence of 0.1% casein, hGIPR; type: cell-based; details: ratio of hGIPR to hGLP1R cAMP EC50 ratios
T1 construct: expressed in transfected cells; host or cells: HEK293
T1 sequence (P48546 22-466): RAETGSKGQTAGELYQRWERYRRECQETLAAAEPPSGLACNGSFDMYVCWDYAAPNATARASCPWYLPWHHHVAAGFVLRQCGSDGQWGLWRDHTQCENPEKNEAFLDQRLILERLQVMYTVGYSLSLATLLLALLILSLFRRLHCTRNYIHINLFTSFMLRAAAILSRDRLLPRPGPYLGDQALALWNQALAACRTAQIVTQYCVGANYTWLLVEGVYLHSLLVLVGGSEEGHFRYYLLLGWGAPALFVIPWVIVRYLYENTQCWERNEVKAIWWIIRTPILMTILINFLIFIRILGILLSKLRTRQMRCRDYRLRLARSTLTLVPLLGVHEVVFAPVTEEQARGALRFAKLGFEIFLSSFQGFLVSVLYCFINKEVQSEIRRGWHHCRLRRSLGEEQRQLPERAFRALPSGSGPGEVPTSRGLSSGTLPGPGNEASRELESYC

| Substance | [hGIPR/hGLP1R] EC50 Ratio |
| --- | --- |
| Y-Aib-EGT-αMeF(2F)-TSDYSI-Aib-LDEK((2-[2-(2-Amino-ethoxy)-ethoxy]-acetyl)2-(γGlu)-CO—(CH2)18—CO2H)AQ-Aib-EFI-(D-Glu)-YLIEGGPSSGAPPPS-NH2 (YXEGTXTSDYSIXLDEKAQXEFIXYLIEGGPSSGAPPPS; Aib, αMeF(2F), D-Glu; lipidated K; amide; (2)..(2) Xaa at position 2 is Aib; (6)..(6) Xaa at position 6 is alpha-methyl-Phe(2F); (13)..(13) Xaa at position 13 is Aib; MOD_RES (17)..(17) Lys at position 17 is chemically modified by conjugation of the epsilon-amino group of the Lys side chain with (2-[2-(2-amino-ethoxy)-ethoxy]-acetyl)2-(gamma-Glu)-CO-(CH2)18- CO2H; (20)..(20) Xaa at position 20 is Aib; (24)..(24) Xaa at position 24 is D-Gl) [Peptide 224] | 3.32 |
| Y-Aib-EGT-αMeF(2F)-TSDYSI-Nle-LD-Orn-K((2-[2-(2-Amino-ethoxy)-ethoxy]-acetyl)2-(γGlu)-CO—(CH2)16—CO2H)AQ-Aib-EFI-(D-Glu)-YLIEGGPSSGAPPPS-NH2 (YXEGTXTSDYSIXLDXKAQXEFIXYLIEGGPSSGAPPPS; Aib, Nle, Orn, αMeF(2F), lipidated Lys, D-Glu, amide; (2)..(2) Xaa at position 2 is Aib; (6)..(6) Xaa at position 6 is alpha-methyl-Phe(2F); (13)..(13) Xaa at position 13 is Nle; (16)..(16) Xaa at position 16 is Orn; MOD_RES (17)..(17) Lys at position 17 is chemically modified by conjugation of the epsilon-amino group of the Lys side chain with (2-[2-(2-amino-ethoxy)-ethoxy]-acetyl)2-(gamma-Glu)-CO-(CH2)16- CO2H; (20)..(20) Xaa at position 20 is Aib;) [Peptide 249] | 4.94 |
| Y-Aib-EGT-αMeF(2F)-TSDYSI-αMeL-LD-Dab-K((2-[2-(2-Amino-ethoxy)-ethoxy]-acetyl)2-(γGlu)-CO—(CH2)16—CO2H)AQ-Aib-EFI-(D-Glu)-YLIEGGPSSGAPPPS-NH2 (YXEGTXTSDYSIXLDXKAQXEFIXYLIEGGPSSGAPPPS; Aib, αMeF(2F), αMeL, Dab, D-Glu; lipidated K; amide; (2)..(2) Xaa at position 2 is Aib; (6)..(6) Xaa at position 6 is alpha-methyl-Phe(2F); (13)..(13) Xaa at position 13 is alpha-methyl-Leu; (16)..(16) Xaa at position 16 is Dab; MOD_RES (17)..(17) Lys at position 17 is chemically modified by conjugation of the epsilon-amino group of the Lys side chain with (2-[2-(2-amino-ethoxy)-ethoxy]-acetyl)2-(gamma-Glu)-CO-(CH2)16- CO2H; (20)..(20) Xaa at positi) [Peptide 209] | 5.12 |
| Y-Aib-EGT-αMeF(2F)-TSDYSI-αMeL-LD-Dab-K((2-[2-(2-Amino-ethoxy)-ethoxy]-acetyl)2-(γGlu)-CO—(CH2)18—CO2H)AQ-Aib-EFI-(D-Glu)-YLIEGGPSSGAPPPS-NH2 (YXEGTXTSDYSIXLDXKAQXEFIXYLIEGGPSSGAPPPS; Aib, αMeF(2F), αMeL, Dab, D-Glu; lipidated K; amide; (2)..(2) Xaa at position 2 is Aib; (6)..(6) Xaa at position 6 is alpha-methyl-Phe(2F); (13)..(13) Xaa at position 13 is alpha-methyl-Leu; (16)..(16) Xaa at position 16 is Dab; MOD_RES (17)..(17) Lys at position 17 is chemically modified by conjugation of the epsilon-amino group of the Lys side chain with (2-[2-(2-amino-ethoxy)-ethoxy]-acetyl)2-(gamma-Glu)-CO-(CH2)18- CO2H; (20)..(20) Xaa at positi) [Peptide 217] | 2.99 |
| Y-Aib-EGT-αMeF(2F)-TSDYSI-αMeL-LD-Dap-K((2-[2-(2-Amino-ethoxy)-ethoxy]-acetyl)2-(γGlu)-CO—(CH2)16—CO2H)AQ-Aib-EFI-(D-Glu)-YLIEGGPSSGAPPPS-NH2 (YXEGTXTSDYSIXLDXKAQXEFIXYLIEGGPSSGAPPPS; Aib, αMeF(2F), αMeL, Dap, D-Glu; lipidated K; amide; (2)..(2) Xaa at position 2 is Aib; (6)..(6) Xaa at position 6 is alpha-methyl-Phe(2F); (13)..(13) Xaa at position 13 is alpha-methyl-Leu; (16)..(16) Xaa at position 16 is Dap; MOD_RES (17)..(17) Lys at position 17 is chemically modified by conjugation of the epsilon-amino group of the Lys side chain with (2-[2-(2-amino-ethoxy)-ethoxy]-acetyl)2-(gamma-Glu)-CO-(CH2)16- CO2H; (20)..(20) Xaa at positi) [Peptide 210] | 5.24 |
| Y-Aib-EGT-αMeF(2F)-TSDYSI-αMeL-LD-Dap-K((2-[2-(2-Amino-ethoxy)-ethoxy]-acetyl)2-(γGlu)-CO—(CH2)18—CO2H)AQ-Aib-EFI-(D-Glu)-YLIEGGPSSGAPPPS-NH2 (YXEGTXTSDYSIXLDXKAQXEFIXYLIEGGPSSGAPPPS; Aib, αMeF(2F), αMeL, Dap, D-Glu; lipidated K; amide; (2)..(2) Xaa at position 2 is Aib; (6)..(6) Xaa at position 6 is alpha-methyl-Phe(2F); (13)..(13) Xaa at position 13 is alpha-methyl-Leu; (16)..(16) Xaa at position 16 is Dap; MOD_RES (17)..(17) Lys at position 17 is chemically modified by conjugation of the epsilon-amino group of the Lys side chain with (2-[2-(2-amino-ethoxy)-ethoxy]-acetyl)2-(gamma-Glu)-CO-(CH2)18- CO2H; (20)..(20) Xaa at positi) [Peptide 218] | 4.34 |
| Y-Aib-EGT-αMeF(2F)-TSDYSI-αMeL-LD-Orn-K((2-[2-(2-Amino-ethoxy)-ethoxy]-acetyl)2-(γGlu)-CO—(CH2)16—CO2H)AQ-Aib-EFI (D-Glu)-αMeY-LIEGGPSSGAPPPS-NH2 (YXEGTXTSDYSIXLDXKAQXEFIXXLIEGGPSSGAPPPS; Aib, Orn, αMe residues, lipidated Lys, D-Glu, amide; (2)..(2) Xaa at position 2 is Aib; (6)..(6) Xaa at position 6 is alpha-methyl-Phe(2F); (13)..(13) Xaa at position 13 is alpha-methyl-Leu; (16)..(16) Xaa at position 16 is Orn; MOD_RES (17)..(17) Lys at position 17 is chemically modified by conjugation of the epsilon-amino group of the Lys side chain with (2-[2-(2-amino-ethoxy)-ethoxy]-acetyl)2-(gamma-Glu)-CO-(CH2)16- CO2H; (20)..(20) Xaa at positi) [Peptide 236] | 4.10 |
| Y-Aib-EGT-αMeF(2F)-TSDYSI-αMeL-LD-Orn-K((2-[2-(2-Amino-ethoxy)-ethoxy]-acetyl)2-(γGlu)-CO—(CH2)16—CO2H)AQ-Aib-EFI-(D-Glu)-YLIEGGPSSGAPPPS-NH2 (YXEGTXTSDYSIXLDXKAQXEFIXYLIEGGPSSGAPPPS; Aib, Orn, αMe residues, lipidated Lys, D-Glu, amide; (2)..(2) Xaa at position 2 is Aib; (6)..(6) Xaa at position 6 is alpha-MeF(2F); (13)..(13) Xaa at position 13 is alpha-MeL; (16)..(16) Xaa at position 16 is Orn; MOD_RES (17)..(17) K at position 17 is chemically modified by conjugation of the epsilon-amino group of the K side chain with (2-[2-(2-amino-ethoxy)-ethoxy]-acetyl)2-(gamma-Glu)-CO-(CH2)16- CO2H; (20)..(20) Xaa at position 20 is Aib; (24)) [Peptide 2] | 6.63 |
| Y-Aib-EGT-αMeF(2F)-TSDYSI-αMeL-LD-Orn-K((2-[2-(2-Amino-ethoxy)-ethoxy]-acetyl)2-(γGlu)-CO—(CH2)18—CO2H)AQ-Aib-EFI-(D-Glu)-YLIEGGPSSGAPPPS-NH2 (YXEGTXTSDYSIXLDXKAQXEFIXYLIEGGPSSGAPPPS; Aib, Orn, αMe residues, lipidated Lys, D-Glu, amide; (2)..(2) Xaa at position 2 is Aib; (6)..(6) Xaa at position 6 is alpha-MeF(2F); (13)..(13) Xaa at position 13 is alpha-MeL; (16)..(16) Xaa at position 16 is Orn; MOD_RES (17)..(17) K at position 17 is chemically modified by conjugation of the epsilon-amino group of the K side chain with (2-[2-(2-amino-ethoxy)-ethoxy]-acetyl)2-(gamma-Glu)-CO-(CH2)18- CO2H; (20)..(20) Xaa at position 20 is Aib; (24)) [Peptide 3] | 3.61 |
